Biological target: T1, bile salt export pump (BSEP), purified, with C-terminal affinity tags (human, UniProt O95342 1-1321)
T1 construct: bile salt export pump (BSEP, ABCB11), human; construct pSGP18-2μ-BSEP; also called purified BSEP; pSGP18-2μ-BSEP; not shown: His tag (inferred from the removal of the tags on Ni-NTA), C-terminal, kept
Assay: pull-down; Strep-tagged partner immobilised on Strep-Tactin resin, detergent-solubilised purified BSEP added for 30 min at 4°C; 50 mM sodium phosphate pH 7, 150 mM NaCl, 20% glycerol, 0.022% DDM; immunoblot against BSEP and Strep-tag II
Settings: both partners purified

T1 sequence (O95342 whole entry): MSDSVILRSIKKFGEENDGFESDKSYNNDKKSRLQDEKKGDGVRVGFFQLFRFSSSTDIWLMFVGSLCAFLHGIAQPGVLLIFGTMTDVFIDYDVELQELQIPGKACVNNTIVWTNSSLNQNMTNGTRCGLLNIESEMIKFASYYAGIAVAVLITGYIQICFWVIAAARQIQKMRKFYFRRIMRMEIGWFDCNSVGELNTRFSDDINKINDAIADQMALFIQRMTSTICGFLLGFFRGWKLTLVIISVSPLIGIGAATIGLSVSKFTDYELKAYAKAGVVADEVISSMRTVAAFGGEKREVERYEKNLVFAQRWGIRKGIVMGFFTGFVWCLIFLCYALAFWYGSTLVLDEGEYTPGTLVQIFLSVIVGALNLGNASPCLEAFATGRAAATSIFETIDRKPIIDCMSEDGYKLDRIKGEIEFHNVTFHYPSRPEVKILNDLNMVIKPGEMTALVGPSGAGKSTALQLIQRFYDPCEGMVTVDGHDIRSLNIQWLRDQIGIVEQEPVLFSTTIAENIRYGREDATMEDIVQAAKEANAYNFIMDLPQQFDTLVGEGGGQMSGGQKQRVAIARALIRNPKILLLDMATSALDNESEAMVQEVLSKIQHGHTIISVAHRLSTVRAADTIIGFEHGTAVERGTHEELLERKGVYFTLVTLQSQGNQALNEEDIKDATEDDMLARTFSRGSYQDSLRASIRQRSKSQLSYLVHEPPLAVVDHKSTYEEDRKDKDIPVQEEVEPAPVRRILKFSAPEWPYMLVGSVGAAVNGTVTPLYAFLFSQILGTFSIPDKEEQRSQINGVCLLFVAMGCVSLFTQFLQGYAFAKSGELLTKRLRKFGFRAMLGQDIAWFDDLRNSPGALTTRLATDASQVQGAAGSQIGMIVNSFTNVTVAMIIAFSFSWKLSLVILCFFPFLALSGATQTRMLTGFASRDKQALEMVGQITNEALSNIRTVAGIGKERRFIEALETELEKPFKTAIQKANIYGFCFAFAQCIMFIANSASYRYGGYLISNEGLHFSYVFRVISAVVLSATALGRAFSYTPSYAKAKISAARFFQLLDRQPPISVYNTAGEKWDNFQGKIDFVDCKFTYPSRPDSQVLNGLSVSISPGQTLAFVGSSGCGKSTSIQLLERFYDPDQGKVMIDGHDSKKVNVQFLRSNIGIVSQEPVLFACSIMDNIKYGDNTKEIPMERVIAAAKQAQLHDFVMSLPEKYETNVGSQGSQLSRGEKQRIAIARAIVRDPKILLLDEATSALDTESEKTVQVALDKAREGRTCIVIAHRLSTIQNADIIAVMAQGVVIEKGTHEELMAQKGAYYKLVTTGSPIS

B1: BACS_(77-690), Strep-tagged, purified (domain or fragment, human, UniProt Q9Y2P5-1 77-690, looked up)
chain: PARLPPGLRWLPADVIFLAKILHLGLKIRGCLSRQPPDTFVDAFERRARAQPGRALLVWTGPGAGSVTFGELDARACQAAWALKAELGDPASLCAGEPTALLVLASQAVPALCMWLGLAKLGCPTAWINPHGRGMPLAHSVLSSGARVLVVDPDLRESLEEILPKLQAENIRCFYLSHTSPTPGVGALGAALDAAPSHPVPADLRAGITWRSPALFIYTSGTTGLPKPAILTHERVLQMSKMLSLSGATADDVVYTVLPLYHVMGLVVGILGCLDLGATCVLAPKFSTSCFWDDCRQHGVTVILYVGELLRYLCNIPQQPEDRTHTVRLAMGNGLRADVWETFQQRFGPIRIWEVYGSTEGNMGLVNYVGRCGALGKMSCLLRMLSPFELVQFDMEAAEPVRDNQGFCIPVGLGEPGLLLTKVVSQQPFVGYRGPRELSERKLVRNVRQSGDVYYNTGDVLAMDREGFLYFRDRLGDTFRWKGENVSTHEVEGVLSQVDFLQQVNVYGVCVPGCEGKVGMAAVQLAPGQTFDGEKLYQHVRAWLPAYATPHFIRIQDAMEVTSTFKLMKTRLVREGFNVGIVVDPLFVLDNRAQSFRPLTAEMYQAVCEGTWRL
notes: bile acyl-CoA synthetase (BACS, SLC27A5), human, residues 77-690, without the N-terminal membrane anchor, in pET-51b(+); vector pET-51b(+); also called BACS lacking its N-terminal membrane anchor; bile acyl-CoA synthetase; source: E. coli Rosetta (DE3) pLysS, purified (Strep-Tactin)
B1: binds.

Reference: paper PMC4966956, “Analysis of the Bile Salt Export Pump (ABCB11) Interactome Employing Complementary Approaches” (PLoS ONE, 2016)
